Measurements as given in US20240101715A1 (KINDRED BIOSCIENCES, published 2024).
Changes are numbered by the printed parent chain. Each block holds one binder with its values, some of them ahead of it.

What was measured:
[1] = target: T1, canine TNFα (canine, UniProt P51742 77-233, biotinylated (EZ-Link NHS-LC-biotin) in Example 2); test: BLI (biosensor Octet), format not stated
T1 construct: Bought recombinant protein; also called cTNFα; canine TNF-alpha

[2] = target: T2, human TNFα (human, UniProt P01375 77-233, biotinylated (EZ-Link NHS-LC-biotin) in Example 2); test: BLI (ForteBio), biotinylated TNFα on streptavidin tips, antibody in solution, 1:1 model
T2 construct: Bought recombinant protein
T2 sequence (P01375 77-233 limits assumed): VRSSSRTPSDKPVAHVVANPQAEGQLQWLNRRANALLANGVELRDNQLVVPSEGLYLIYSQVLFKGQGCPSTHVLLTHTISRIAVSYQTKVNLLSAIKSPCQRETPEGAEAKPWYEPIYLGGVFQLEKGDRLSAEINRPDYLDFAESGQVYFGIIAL
Procedure: (§1) The binding analysis was performed as follows. Briefly, canine and human TNFα were biotinylated. The free unreacted biotin was removed from biotinylated TNFα by extensive dialysis. Biotinylated TNFα was captured on streptavidin sensor tips. The association of five different concentrations (150, 50, 17, 5.6, and 1.9 nM) of TNFα antibody and TNFα (human and canine, in different tests) was monitored for ninety seconds. Dissociation was monitored for 600 seconds. A buffer only blank curve was subtracted to correct for any drift. The data were fit to a 1:1 binding model using ForteBio™ data analysis software to determine the kon (association rate constant), koff (dissociation rate constant) and the KD (dissociation constant). […] The buffer for dilutions and all binding steps was: 200 mM phosphate, 150 mM NaCl, 0.02% Tween-20, 0.05% sodium azide, and 0.1 mg BSA, pH7.4.

[3] = target: T1, canine TNFα; test: as above
Procedure: as §1

T1 sequence (P51742 77-233 limits assumed): as the sequence (P01375 77-233 limits assumed) above, with R2K, Q21E, N30S, R44T, V49I, E53D, I83F, A109T, R138L, D140N counted along it

Kd [1]: 0.838 nM
B1: bispecific molecule comprising SEQ ID NO: 77 and SEQ ID NO: 81 (anti-NGF + Fc IgGB (FcRn long-acting Q to Y, C1q-, CD16-) + anti-TNF ScFv) (bispecific antibody)
light: EIVMTQSPGSLAGSAGESVSINCRASEDIYNALAWYQQKPGERPKLLIYNTDTLHTGVPARFSSSGSGTDFTLTINNLQAEDVGDYFCQHYFGYPRTFGAGTKVELKRNDAQPAVYLFQPSPDQLHTGSASVVCLLNSFYPKDINVKWKVDGVIQDTGIQESVTEQDKDSTYSLSSTLTMSSTEYLSHELYSCEITHKSLPSTLIKSFQRSECQRVD
heavy: not shown
notes: Expressed in mammalian cells, purified on Protein A; also called bispecific anti-canine TNF and anti-canine NGF molecule

Kd [2]: 0.0207 nM
koff [2]: 1.53e-05 s⁻¹
kon [2]: 741000 M⁻¹ s⁻¹
Kd [3]: 0.0988 nM
koff [3]: 8.28e-05 s⁻¹
kon [3]: 839000 M⁻¹ s⁻¹
B2: KBA v1 (caninized TNFα D2E7 antibody: KBA VL v1 and canine kappa light constant region; caninized variable heavy chain of D2E7 and canine IgG-B constant region) (antibody, V domains shown)
VH: EVQLVESGGDLVKPGGSLRLSCVASGFTFDDYAMHWVRQAPGKGLQWVSAITWNSGHIDYADAVKGRFTISRDNAKNTLYLQMNSLRAEDTAVYYCAKVSYLSTASSLDYWGQGTLVTVSS
VL: DIVMTQTPLSLSASPGEPVSISCRASQGIRNYLAWYLQKPGQSPRLLIYAASTLQSGVPDRFSGSGSGTDFTLRIGRLEAEDAAIYYCQRYNRAPYTFGQGTKVEIKR
notes: Full light and heavy chains without leader; expressed in CHO cells, purified on Protein A; also called KIND-509

Kd [2]: 0.269 nM
koff [2]: 0.00015 s⁻¹
kon [2]: 575000 M⁻¹ s⁻¹
Kd [3]: 0.303 nM
koff [3]: 0.000216 s⁻¹
kon [3]: 713000 M⁻¹ s⁻¹
B3: KBA v2 (caninized TNFα D2E7 antibody: KBA VL v2 and canine kappa light constant region; caninized variable heavy chain of D2E7 and canine IgG-B constant region) (antibody, V domains shown)
VH: B2 VH
VL: B2 VL with L9P, Y36F, L37R, R45Q, P59S, G76S, E81D, I85V
notes: Full light and heavy chains without leader; expressed in CHO cells, purified on Protein A
